For this assay, the target named is GST-TDRD3-Tdr E691K (human). Kind of assay: pull-down.

“DEAD/H box-3 (from UniProt O00571-1 1-662) (natural protein)” had a percent reduction of binding against wild-type GST-TDRD3-Tdr of 50%.

Substance “Eukaryotic translation elongation factor 1 alpha 1 (from UniProt P68104 1-462) (natural protein)” yielded a percent reduction of binding against wild-type GST-TDRD3-Tdr of 90%.

The record behind these values is publication PMC2536506.
